Experimental findings from article PMC10693601 are described below.

Values joined by “and” are separate entries in the source; they are usually repeats but may differ in a detail not shown here. Identical values can stand only once.

The test concerns the target AIM2 (Absent In Melanoma 2), full length, without MBP tag, labeled with Alexa Fluor 488 (human) (UniProt O14862). As to the kind of experiment: single-molecule confocal fluorescence microscopy with optical tweezers; Alexa 488-labeled protein (~0.2-14 nM) in the protein channel, on a single biotinylated lambda-phage dsDNA (48.5 kbp) tethered between two optically trapped streptavidin beads; 2D scans, movies and kymographs; oligomer size from photon counts (11 per fluorophore); 20 mM HEPES pH 7.5, 160 mM KCl, 1 mM BME, 0.1% Triton X-100, 5% glycerol; room temperature.

For orientation: stoichiometry N means the number of molecules, sites or subunits per partner or assembly. Turning to “AIM2 (Absent In Melanoma 2), full length, without MBP tag, labeled with Alexa Fluor 488 (from UniProt O14862 1-343) (natural protein)”, the oligomer growth rate (highest observed) is < 28 molecules/s; the oligomer growth rate (oligomers of 1-20 molecules, low nanomolar) fell in the range of 0.2 to 7 molecules/s; the oligomer growth rate at 0.5 nM AIM2 was determined as 7.4 s⁻¹; the oligomer growth rate at 1 nM AIM2 (bottom kymograph, dimer to hexamer) is 94 s⁻¹. This substance also showed an oligomer growth rate at 1 nM AIM2 (middle kymograph, starting from a monomer) of 5.8 s⁻¹; an oligomer growth rate at 2 nM AIM2 of 10.7 s⁻¹; an oligomer growth rate at 2 nM AIM2 (4 to 6 molecules) of 11.4 s⁻¹; an oligomer growth rate at 10 nM AIM2 (4 to 11 molecules) of 25.3 s⁻¹. Besides, the oligomer growth rate at 10 nM AIM2 (top kymograph) worked out at 302 s⁻¹; the oligomer growth rate at 13.5 nM AIM2 is 34 s⁻¹; the stoichiometry N was < 25 molecules and 13 molecules to 15 molecules (2×).
